Article PMC6854080, “Increased Mosquito Midgut Infection by Dengue Virus Recruitment of Plasmin Is Blocked by an Endogenous Kazal-type Inhibitor” (iScience, 2019)

Target: T1, recombinant AaTI (Aedes aegypti Kazal-type serine protease inhibitor) (Aedes aegypti, UniProt Q177W0 23-91)
T1 construct: recombinant protein of 9.85 kDa inclusive of His-tag; also called rAaTI; wild-type rAaTI; source: bacterial system, purified
T1 sequence (looked up): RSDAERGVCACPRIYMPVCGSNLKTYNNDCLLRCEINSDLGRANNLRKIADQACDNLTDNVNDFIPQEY
Test: BLI; rAaTI-preloaded biosensors immersed into plasmin solutions of different concentrations; association and dissociation curves fitted globally to 1:1 kinetics
Conditions: both partners purified

B1: human plasmin (enzyme)
chain 1: KVYLSECKTGNGKNYRGTMSKTKNGITCQKWSSTSPHRPRFSPATHPSEGLEENYCRNPDNDPQGPWCYTTDPEKRYDYCDILECEEECMHCSGENYDGKISKTMSGLECQAWDSQSPHAHGYIPSKFPNKNLKKNYCRNPDRELRPWCFTTDPNKRWELCDIPRCTTPPPSSGPTYQCLKGTGENYRGNVAVTVSGHTCQHWSAQTPHTHNRTPENFPCKNLDENYCRNPDGKRAPWCHTTNSQVRWEYCKIPSCDSSPVSTEQLAPTAPPELTPVVQDCYHGDGQSYRGTSSTTTTGKKCQSWSSMTPHRHQKTPENYPNAGLTMNYCRNPDADKGPWCFTTDPSVRWEYCNLKKCSGTEASVVAPPPVVLLPDVETPSEEDCMFGNGKGYRGKRATTVTGTPCQDWAAQEPHRHSIFTPETNPRAGLEKNYCRNPDGDVGGPWCYTTNPRKLYDYCDVPQCAAPSFDCGKPQVEPKKCPGR
chain 2: VVGGCVAHPHSWPWQVSLRTRFGMHFCGGTLISPEWVLTAAHCLEKSPRPSSYKVILGAHQEVNLEPHVQEIEVSRLFLEPTRKDIALLKLSSPAVITDKVIPACLPSPNYVVADRTECFITGWGETQGTFGAGLLKEAQLPVIENKVCNRYEFLNGRVQSTELCAGHLAGGTDSCQGDSGGPLVCFEKDKYILQGVTSWGLGCARPNKPGVYVRVSRFVTWIEGVMRNN
modifications: active two-chain plasmin (Lys-plasmin limits from the UniProt chain features; the paper prints none), heavy and light chains joined by interchain disulfides; natural glycosylation
Kd: 62.8 nM
